Target: the molecule itself
Test: sedimentation assay

Ac-KKWQQQQQQQQQQAAQQQQQQQQQQAKK-NH2 [AA peptide, K2WQ10AAQ10AK2 (polyglutamine peptide interrupted by AlaAla)]
Kn k+^2 (nucleation-elongation fit of sedimentation data): 0.000197 M^−2s^−2

B1: PG peptide, K2WQ10(D-Pro)GQ10AK2 (polyglutamine peptide interrupted by the beta-turn template D-ProGly) (peptide)
peptide: KKWQQQQQQQQQQPGQQQQQQQQQQAKK
HELM: PEPTIDE1{[ac].K.K.W.Q.Q.Q.Q.Q.Q.Q.Q.Q.Q.[dP].G.Q.Q.Q.Q.Q.Q.Q.Q.Q.Q.A.K.K.[am]}$$$$V2.0
SMILES: CC(=O)N[C@@H](CCCCN)C(=O)N[C@@H](CCCCN)C(=O)N[C@@H](Cc1c[nH]c2ccccc12)C(=O)N[C@@H](CCC(N)=O)C(=O)N[C@@H](CCC(N)=O)C(=O)N[C@@H](CCC(N)=O)C(=O)N[C@@H](CCC(N)=O)C(=O)N[C@@H](CCC(N)=O)C(=O)N[C@@H](CCC(N)=O)C(=O)N[C@@H](CCC(N)=O)C(=O)N[C@@H](CCC(N)=O)C(=O)N[C@@H](CCC(N)=O)C(=O)N[C@@H](CCC(N)=O)C(=O)N1CCC[C@@H]1C(=O)NCC(=O)N[C@@H](CCC(N)=O)C(=O)N[C@@H](CCC(N)=O)C(=O)N[C@@H](CCC(N)=O)C(=O)N[C@@H](CCC(N)=O)C(=O)N[C@@H](CCC(N)=O)C(=O)N[C@@H](CCC(N)=O)C(=O)N[C@@H](CCC(N)=O)C(=O)N[C@@H](CCC(N)=O)C(=O)N[C@@H](CCC(N)=O)C(=O)N[C@@H](CCC(N)=O)C(=O)N[C@@H](C)C(=O)N[C@@H](CCCCN)C(=O)N[C@@H](CCCCN)C(N)=O
Kn k+^2 (nucleation-elongation fit of sedimentation data): 0.127 M^−2s^−2

Ac-KKWQQQQQQQQQQQQQQQQQQQQAKK-NH2 [Q20 peptide, K2WQ20AK2 (uninterrupted polyglutamine control)]
Kn k+^2 (nucleation-elongation fit of sedimentation data): 0.000235 M^−2s^−2
